Results taken from PMC11276767.

Target: Ca2+
Test: in situ Ca2+ titration of FRET with mNGΔN5-SOAR1L
Settings: 25 µM digitonin, 10 µM ionomycin, EGTA

- Kd (cells transfected with CasRx-P4HB (P4HB knockdown), Hill n 2.8±0.09): 740 µM
- Kd (cells transfected with CasRx-PDIA3 (PDIA3 knockdown), Hill n 2.8±0.12): 750 µM
- Kd (cells transfected with control CasRx, Hill n 2.7±0.12): 760 µM
Substance: STIM1 1-310-CFPΔC11 C49A; C56A
